From patent US20120141373A1 (University of California, published 2012)
Residue numbers refer to the chain shown, from its start.

T1: epithin (mouse, UniProt P56677 615-855, limits assumed)
T1 construct: also called mouse homologue of MT-SP1; A11 (Epithin)
T1 sequence (looked up): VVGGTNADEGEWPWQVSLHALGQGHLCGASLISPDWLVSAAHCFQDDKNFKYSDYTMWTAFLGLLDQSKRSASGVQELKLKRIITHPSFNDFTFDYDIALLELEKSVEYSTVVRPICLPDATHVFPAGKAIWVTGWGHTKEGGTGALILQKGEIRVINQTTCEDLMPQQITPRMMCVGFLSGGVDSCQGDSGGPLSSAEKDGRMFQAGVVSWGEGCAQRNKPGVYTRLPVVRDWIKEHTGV

T2: human MT-SP1 protease domain (human, UniProt Q9Y5Y6 615-855)
T2 construct: domain: protease domain; also called hMT-SP1; matriptase
T2 sequence (looked up): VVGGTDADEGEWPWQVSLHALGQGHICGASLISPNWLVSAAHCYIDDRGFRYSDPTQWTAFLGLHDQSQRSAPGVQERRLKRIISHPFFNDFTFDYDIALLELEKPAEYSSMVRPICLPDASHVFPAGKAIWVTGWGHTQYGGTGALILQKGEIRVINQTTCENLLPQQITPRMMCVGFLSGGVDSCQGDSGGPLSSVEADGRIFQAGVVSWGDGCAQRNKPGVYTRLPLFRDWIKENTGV

B1: A11 Fab (Fab, V domains shown)
VH: EVQLVQSGGGLVKPGGSLRLSCAASGFTFSSYAMSWVRQAPGKGLEWVSAISGSGGSTYYADSVKGRFTISRDNSKNTLYLQMSSLRAEDTAVYYCVKDLGIAARRFVSGAFDIWGQGTMVTVSS
VL: EIVLTQSPGTLSLSPGERATLSCRASQSVSSSYLAWYQQKPGQAPRLLIYGASTRATGIPARFSGSGSGTDFTLTINSLEPEDFAVYYCQQRSNWPPGYTFGQGTKVEIKR
notes: Human Fab from a naive phage library, VH3 heavy chain and Vkappa3 light chain; The Fab was made in E. coli for biochemical assays and in T. reesei for crystallisation; also called Fab A11; recombinant A11 Fab
B2: A11 H R100bK (Fab, V domains shown)
VH: B1 VH with R106K
VL: B1 VL
notes: also called ArgH100bLys; A11 mutant ArgH100bLys
B3: A11 H R100aA (Fab, V domains shown)
VH: B1 VH with R105A
VL: B1 VL
notes: also called ArgH100aAla; A11 mutant ArgH100aAla
B4: A11 H R100bA (Fab, V domains shown)
VH: B1 VH with R106A
VL: B1 VL
notes: also called ArgH100bAla; A11 mutant ArgH100bAla
B5: E2 Fab (Fab, V domains shown)
VH: QVQLVQSGGGLVKPGGSLRLSCAASGFTFSSYAMSWVRQAPGKGLEWVSAISGSGGSTYYADSVKGRFTISRDNSKNTLYLQMSSLRAEDTAVYYCARPYLTYPQRRGPQNVSPFDNWGQGTMVTVSS
VL: DIQMTQSPSSLSASVGDRVTITCRASQGISSYLAWYQQKPGKAPKLLIYAASSLQSGVPSRFSGSGSGTDFTLTISSLQPEDFAVYYCQQHGNLPYTFGDGTKVEIKR
notes: also called anti-MT-SP1 Fab antibody E2

Tests used:
epithin = target: T1, epithin; experiment: steady state kinetics, inhibition of epithin
[1] = target: T2, human MT-SP1 protease domain; experiment: steady state kinetics
Experimental: (§1) Briefly, all reactions were carried out in 50 mM Tris, pH 8.8, 50 mM NaCl, 0.01% Tween-20 in 96-well, medium binding, flat-bottomed plate (Corning), and cleavage of substrate (Spectrazyme-tPA (hexahydrotyrosyl-Gly-Arg-pNA), American Diagnostica, Greenwich, Conn.) was monitored in a UVmax Microplate Reader (Molecular Devices Corporation, Palo Alto, Calif.). […] Reactions to determine the IC₅₀'s were carried out by incubating 0.2 nM enzyme with inhibitor for >5 hours to assure steady-state behavior of the system. […] Inhibitor activity was also measured using the chromogenic substrate Spectrafluor tPA (American diagnostica, Inc.). […] Kaleidagraph 3.6 was used to fit all graphs and equations (Synergy Software, Reading, Pa.).

[2] = target: T2, human MT-SP1 protease domain; experiment: steady state kinetics, tight-binding inhibition of Spectrazyme-tPA cleavage
Experimental: as §1

[3] = target: T2, human MT-SP1 protease domain; experiment: steady state kinetics, probably pM (the same paragraph prints 720 µM for what Table 3 gives as […] nM)
Experimental: as §1

Binder | Ki (epithin) [nM] | fold change of KI over wild-type A11 [1] [fold] | Ki [2] [nM] | Ki [3] [nM]
B1 | 87 | – | – | –
B2 | – | 250 | 180 | –
B3 | – | ~2 | 1.5 | –
B4 | – | 250 | 180 | –
B5 | – | – | – | 12000
